From patent US20200199217A1 (published 2020) come the findings set out here.

Changes are numbered by the printed parent chain.

B1: mAb4.0 IgG (antibody, V domains shown)
VH: QLQLQESGPGLVKPSETLSLTCTVSGGSIGSRSYYWGWIRQPPGKGLEWIGSIHYSGTTYYNPSLKSRVTISVDTSKNQFSLKLSSVTAADTAVYYCARVAPSYPRVFDYWGQGTLVTVSS
VL: QSVLTQPPSVSGAPGQRVTISCTGSSSNIGAGYDVHWYQQLPGTAPKLLIYGNRNRPSGVPDRFSGSKSGTSASLAITGLQAEDEADYYCQSYDYSLRVYVFGGGTKLTVL
B2: mAb3.0 IgG (antibody, V domains shown)
VH: QLQLQESGPGLVKPSETLSLTCTVSGGSISSTSYYWGWIRQPPGKGLEWIGSIHYSGNTYYNPSLKSRVTISVDTSKNQFSLKLSSVTAADTAVYYCARVHYGGYIPRRFDHWGQGTLVTVSS
VL: B1 VL with R54T, V99G
B3: mAb1.0 IgG (antibody, V domains shown)
VH: QVQLVESGGGVVQPGRSLRLSCAASGFSFSAYAMHWVRQAPGKGLEWVAVISYDGTNEYYADSVKGRFTISRDNSKNTLYLQMNSLRAEDTAVYYCARGIRIFTSYFDSWGQGTLVTVSS
VL: B1 VL with G32H, G52S, R54N, V99G
B4: mAb5.0 IgG (antibody, V domains shown)
VH: EVQLLESGGGLVQPGGSLRLSCAASGFTFSTYAMSWVRQAPGKGLEWVSGISGGSGYTYYADSVKGRFTISRDNSKNTLYLQMNSLRAEDTAVYYCARVVTYRDPPASFDYWGQGTLVTVSS
VL: B1 VL with G32H, R54D, R98K, V99A
B5: mAb1.0 Fab (Fab, V domains shown)
VH: B3 VH
VL: B1 VL with G32H, G52S, R54N, V99G
B6: mAb3.0 Fab (Fab, V domains shown)
VH: B2 VH
VL: B1 VL with R54T, V99G
B7: mAb4.0 Fab (Fab, V domains shown)
VH: B1 VH
VL: B1 VL
B8: mAb5.0 Fab (Fab, V domains shown)
VH: B4 VH
VL: B1 VL with G32H, R54D, R98K, V99A
B9: mAb2.0 Fab (Fab, V domains shown)
VH: B2 VH with S31T, T32S, H54Y, S56T, H101R, G104V, Y105G, I106V, R109Y, H112P
VL: B1 VL with G32H, R54D, R98S, V99G

The target in one assay is T1, hu-IL-36γ (human, UniProt Q9NZH8 18-169).
T1 sequence: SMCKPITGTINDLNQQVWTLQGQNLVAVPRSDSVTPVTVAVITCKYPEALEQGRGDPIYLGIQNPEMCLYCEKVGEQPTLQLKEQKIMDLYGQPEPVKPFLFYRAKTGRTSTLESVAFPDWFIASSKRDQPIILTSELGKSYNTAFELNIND
Description: cell-based or functional assay.
Take B1: the “IC50, HEK Blue SEAP reporter assay” value came out at 52 nM.
Take B2: the “IC50, HEK Blue SEAP reporter assay” value was determined as 30 nM.
As for B3, the “IC50, HEK Blue SEAP reporter assay” value came out at 5.3 nM.
As for B4, the “IC50, HEK Blue SEAP reporter assay” value worked out at 142 nM.

In another assay the target is T2, hu-IL-36α (human, UniProt Q9UHA7 6-158).
T2 sequence: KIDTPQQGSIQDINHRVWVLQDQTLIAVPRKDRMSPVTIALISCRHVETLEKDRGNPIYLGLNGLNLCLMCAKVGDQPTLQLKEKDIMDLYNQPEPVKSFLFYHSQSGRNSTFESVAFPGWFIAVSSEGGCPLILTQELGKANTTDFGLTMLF
Description: cell-based or functional assay.
As for B1, the “IC50, HEK Blue SEAP reporter assay” value came out at 16 nM.
As for B2, the “IC50, HEK Blue SEAP reporter assay” value was found to be 90 nM.
In the case of B3, the “IC50, HEK Blue SEAP reporter assay” value came out at 43 nM.
Same read-out and setting: the value for B4 was 95 nM.

The target of another assay is T1, hu-IL-36γ. Description: cell-based or functional assay. The source holds these as a separate data set.
With B5, the “% Inhibition, HEK Blue SEAP reporter assay” value (“% Inhibition” for short) was 31%.
The same measure, in the same setting: as for B6, the figure is 64%; as for B7, 57%.
Turning to B8, the “% Inhibition” value turned out to be 75%.
As for B9, the “% Inhibition” value turned out to be 89%.

A further assay addresses T2, hu-IL-36α. Briefly: cell-based or functional assay. The source holds these as a separate data set.
In the case of B5, the “% Inhibition” value amounted to 70%.
For the molecule B6, the “% Inhibition” value turned out to be 40%.
As to B7, the “% Inhibition” value was 91%.
Still for that read-out and setting: the value for B8 was 75%.
Turning to B9, the “% Inhibition” value is 91%.
